# Measurements: patent US11441147B2 (priority 2013, dated 2022)
# Like-named read-outs stand apart in the source and are kept apart here.
# Key:
# [1] = tested on: Fusarium graminearum (Fg) macroconidia; assay type: cell-based; conditions: for Morphology of Fg macroconidia (microscopic analysis): 1.5 μg dsRNA per 100 macroconidia in 100 μl SNA medium
# CYP51A = assay type: cell-based, Fusarium graminearum; conditions: 72 hpt; normalized to beta-tubulin
# CYP51B = assay type: cell-based, Fusarium graminearum; conditions: 72 hpt; normalized to beta-tubulin
# CYP51C = assay type: cell-based, Fusarium graminearum; conditions: 72 hpt; normalized to beta-tubulin
# [2] = tested on: Fusarium graminearum (Fg) macroconidia; assay type: cell-based; conditions: 0 hpt and 72 hpt; dose dependent, 75 μg to 1 μg dsRNA
# GFP-expressing Fg strain = assay type: in vivo, Fusarium graminearum on Arabidopsis thaliana Col-0; conditions: 3 dpi; CYP3RNA-expressing leaves
# Fg CYP51A = assay type: in vivo, Fusarium graminearum; conditions: 3 dpi; average of lines L1, L8, L10, L11 vs ev control line
# Fg CYP51B = assay type: in vivo, Fusarium graminearum; conditions: 3 dpi; average of lines L1, L8, L10, L11 vs ev control line
# Fg CYP51C = assay type: in vivo, Fusarium graminearum; conditions: 3 dpi; average of lines L1, L8, L10, L11 vs ev control line
# [3] = tested on: siRNAs corresponding to the targeted CYP51 sequences; assay: Northern analysis of siRNAs in Arabidopsis leaves with CYP3RNA as probe; set-up: species or system Arabidopsis thaliana; conditions: Fg-infested and uninfested leaves from CYP3RNA-expressing plants
# Description: For detecting siRNA, total RNA was extracted from the Arabidopsis lines using TRIzol reagent (Invitrogen) following the manufacturer's protocol. A total of 15 μg total RNA was separated in a 16% polyacrylamide-7 M urea gel, and transferred onto Hybond Nylon membrane (Amersham, UK) using a semidry blotter (BioRad) at constant current (250 mA) for 3 h. The RNA was UV-cross-linked to the membrane at 1200×100 μjoules (UV Stratalinker) energy. The membrane was pre-hybridized for 45 min at 42° C. in 20 ml PerfectHyb-Puffer (Sigma). The complete 791 bp CYP3RNA PCR amplicon was used as a template for random labeling (Random Primer DNA Labeling with Kit, NEB), added to the hybridization buffer, and hybridized overnight at 42° C. The membrane was washed twice at room temperature with 5×SSC+0.01% SDS. The membrane was exposed on phosphorimaging screens (Bio-Rad) and signals were detected using a molecular imager and the Quantity One software (BioRad). A parallel loading of low range RNA marker (Fermentas) was used as size marker.
# It was further assessed whether this reduction in Fg CYP51 transcripts was associated with the production of corresponding siRNAs. In Northern analyses using CYP3RNA as the probe, siRNAs corresponding to the targeted CYP51 sequences in both Fg-infested and uninfested leaves from CYP3RNA-expressing plants were detected (FIG. 8). […]
# [4] = tested on: Fusarium graminearum (Fg); assay type: in vivo, Fusarium graminearum on barley cultivar Golden Promise; conditions: 6 days after inoculation
# [5] = tested on: Fusarium graminearum (Fg); assay type: in vivo, Fusarium graminearum on barley; conditions: upper part sprayed, lower part inoculated after 2 days; 6 days after inoculation
# [6] = tested on: Fusarium graminearum (Fg); conditions: 3 dpi
Molecule,"Phenotype of Fg macroconidia ([1]; tebuconazole 5 mg/l, 72 h post treatment)",Morphology of Fg macroconidia (microscopic analysis) ([1]; 48 h post treatment),Morphology of Fg macroconidia (microscopic analysis) ([1]; 72 h post treatment),CYP51A transcript level vs mock control (CYP51A),CYP51B transcript level vs mock control (CYP51B),CYP51C transcript level vs mock control (CYP51C),Fungal growth (optical densities of Fg cultures at 600 nm) [2],Fungal growth on intact leaves (GFP fluorescence) (GFP-expressing Fg strain),Reduction of relative transcript level of Fg CYP51A (Fg CYP51A) [%],Reduction of relative transcript level of Fg CYP51B (Fg CYP51B) [%],Reduction of relative transcript level of Fg CYP51C (Fg CYP51C) [%],siRNAs corresponding to the targeted CYP51 sequences [3],"Relative amount of fungal DNA (qPCR, normalized to plant ubiquitin DNA) ([4]; vs infected control leaves)","Fungal growth on sprayed leaves (infection symptoms) ([4]; dsRNA 20 ng/μl sprayed 48 h before inoculation, vs buffer or GFP-dsRNA)",Fungal growth at sprayed upper and unsprayed lower leaf area (relative amount of fungal DNA) [5],Reduction of fungal mycelium formation on leaves (trypan blue microscopy) ([6]; CYP3RNA-expressing leaves vs Col-0 ev control) [%],"Disease symptoms on detached leaves ([6]; T2 lines L1, L8, L10, L11, 5×10^4 Fg macroconidia per ml)","Percentage of infested leaf area ([6]; four transgenic lines, ev controls 77%) [%]"
"CC(C)(C)C(O)(CCc1ccc(Cl)cc1)Cn1cncn1 (stereo not drawn) [tebuconazole, reference compound]",phenotype comparable to that elicited by CYP3RNA treatment,,,,,,,,,,,,,,,,,
"CYP3RNA: 791 bp dsRNA complementary to all three Fg CYP51 genes, from stacked clone CYP51B-CYP51A-CYP51C; SEQ ID NO:7 (nucleic acid, combines partial sequences of Fusarium graminearum CYP51B-CYP51A-CYP51C) DNA: CAGCAAGTTTGACGAGTCCCTGGCCGCTCTCTACCACGACCTCGATATGGGCTTCACCCCCATCAACTTCATGCTTCACTGGGCCCCTCTCCCCTGGAACCGTAAGCGCGACCACGCCCAGCGCACTGTTGCCAAGATCTACATGGACACTATCAAGGAGCGCCGCGCCAAGGGCAACAACGAATCCGAGCATGACATGATGAAGCACCTTATGAACTCTCCATGGCGGCCGCGGGAATTCGATATCGGTCCATTGACAATCCCCGTCTTTGGTAGCGATGTCGTATACGATTGTCCCAACTCGAAGCTCATGGAACAAAAGAAGTTTGTCAAGTTTGGCCTTACGCAAAAAGCACTCGAGTCACACGTCCAGTTAATCGAGCGAGAGGTTCTTGACTACGTCGAAACTGATCCATCCTTTTCTGGCAGAACTAGCACCATCGATGTCCCCAAGGCAATGGCTGAGATAACAATCTTTACTGCCTCACGTTCTTTGCAGGGTGAGGAAGTTCGGAGAAAACTCACTGCCGAGTTTGCTGCCACTAGTATTGGAAGCACCGTACAATATGGCATCGACCCGTACGCTTTTTTCTTCGACTGCAGAGATAAATACGGCGACTGCTTTACCTTTATTCTCCTTGGCAAATCAACGACTGTCTTTCTTGGTCCCAAGGGCAATGACTTTATCCTCAACGGCAAACACGCCGATCTCAACGCCGAGGACGTTTATGGGAAACTTACCACGCCCGTGTTTGGTGAGGAGGTTGTTTATGACTGCTCCAATG",,swelling of hyphal tips,morphological changes had become more pronounced,significantly reduced,significantly reduced,significantly reduced,strongly inhibited,restricted to the inoculation site,92,89,77,detected,significantly lower,significant inhibition of fungal growth,observed not only at the CYP3RNA-treated upper leaf area but also at the lower leaf area,~100,no disease symptoms,0.9
